The text below walks through data of the supplement of paper PMC10567573.

Sequences and labels used below:
B1: CDC14A (parent)
chain: LWVQGDIFRSKLKNRPSSEGSINK
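Note: lentivirally expressed fusions sorted by FACS into six bins by GFP to DsRed ratio, PSI derived from sequencing read proportions per bin multiplied by bin number.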

Variants of B1 are the subject of the data set. Nature of the data set: protein stability index of a GFP-peptide fusion (GPS, HEK-293T) (PSI 1-6); higher = more stable. The following applies: c terminus: a fixed tail appended.
Consider LWVQGYIFRSKLKNRPSSEGSINK, for which the protein stability index stood at 2.45.
LWVQGAIFRSKLKNRPSSEGSINK: the protein stability index is 2.27.
The figure for LWVQGKIFRSKLKNRPSSEGSINK is 1.74; for LWVQGWIFRSKLKNRPSSEGSINK it is 1.37.
For LWVQGCIFRSKLKNRPSSEGSINK, the protein stability index came to 1.8.
As to LWVQGRIFRSKLKNRPSSEGSINK, the protein stability index came to 1.9.
The figure for LWVQGPIFRSKLKNRPSSEGSINK is 2.34; for LWVQGSIFRSKLKNRPSSEGSINK it is 2.28; for LWVQGDIFRSKLANRPSSEGSINK it is 2.38.
For LWVQGDIFRSKLRNRPSSEGSINK, the protein stability index was 2.67.
Regarding LWVQGDIFRSKLENRPSSEGSINK, the protein stability index is 2.53.
The result for LWVQGDIFRSKLPNRPSSEGSINK reads 3.01.
As for LWVQGDIFRSKLCNRPSSEGSINK, the protein stability index came to 2.2.
The figure for LWVQGDIFRSKLNNRPSSEGSINK is 2.31; for LWVQGDIFRSKLHNRPSSEGSINK it is 2.55; for LWVQGDIFRSKLDNRPSSEGSINK it is 2.87.
With LWVQGDIFRSKLMNRPSSEGSINK, the protein stability index was 1.93.
On to LWVQGDIFRSKLTNRPSSEGSINK, for which the protein stability index amounted to 2.7.
The figure for LWVQGDIFRSKLYNRPSSEGSINK is 1.89; for LWVQGDIFRSKLQNRPSSEGSINK it is 2.69; for LWVQGDIFRSKLLNRPSSEGSINK it is 2.94.
Take LWVQGDIFRSKLVNRPSSEGSINK: the protein stability index is 2.41.
The figure for LWVQGDIFRSKLGNRPSSEGSINK is 2.05; for LWVQGDIFRSKLINRPSSEGSINK it is 2.15; for LWVQGDIFRSKLFNRPSSEGSINK it is 1.68.
The figure for LWVQGDIFRSKLSNRPSSEGSINK is 2.54.
The result for LWVQGDIFRSKLKARPSSEGSINK reads 2.6; that for LWVQGDIFRSKLKCRPSSEGSINK, 2.13; that for LWVQGDIFRSKLKFRPSSEGSINK, 2.48.
Consider LWVQGDIFRSKLKMRPSSEGSINK, for which the protein stability index amounted to 2.
The figure for LWVQGDIFRSKLKLRPSSEGSINK is 2.47; for LWVQGDIFRSKLKGRPSSEGSINK it is 2.24; for LWVQGDIFRSKLKKRPSSEGSINK it is 2.55.
In the case of LWVQGDIFRSKLKHRPSSEGSINK, the protein stability index turned out to be 2.26.
As for LWVQGDIFRSKLKDRPSSEGSINK, the protein stability index stood at 2.67.
Turning to LWVQGDIFRSKLKERPSSEGSINK, the protein stability index came to 2.7.
The result for LWVQGDIFRSKLKIRPSSEGSINK reads 2.43; that for LWVQGDIFRSKSKNRPSSEGSINK, 2.89.
The result for LWVQGDIFRSKCKNRPSSEGSINK reads 3.03.
The result for LWVQGDIFRSKPKNRPSSEGSINK reads 3.09; that for LWVQGDIFRSKQKNRPSSEGSINK, 2.92; that for LWVQGDIFRSKYKNRPSSEGSINK, 2.61.
Turning to LWVQGDIFRSKNKNRPSSEGSINK, the protein stability index came out at 2.82.
The result for LWVQGDIFRSKAKNRPSSEGSINK reads 3.21; that for LWVQGDIFRSKTKNRPSSEGSINK, 3.17; that for LWVQGDIFRSKVKNRPSSEGSINK, 2.36.
In the case of LWVQGDIFRSKRKNRPSSEGSINK, the protein stability index was 2.22.
LWVQGDIFRSKHKNRPSSEGSINK: the protein stability index was determined as 2.71.
In the case of LWVQGDIFRSKKKNRPSSEGSINK, the protein stability index was found to be 3.16.
In the case of LWVQGDIFRSKWKNRPSSEGSINK, the protein stability index was determined as 2.42.
Consider LWVQGDIFRSKIKNRPSSEGSINK, for which the protein stability index came to 2.8.
On to LWVQGDIFRSKMKNRPSSEGSINK, for which the protein stability index was 2.41.
Turning to LWVQGDIFRSKFKNRPSSEGSINK, the protein stability index was determined as 2.29.
With LWVQGDIFRSKEKNRPSSEGSINK, the protein stability index was determined as 3.51.
Take LWVQGDIFRSKGKNRPSSEGSINK: the protein stability index was determined as 2.83.
The result for LWVQGDIFRSKDKNRPSSEGSINK reads 2.83; that for LWVQLDIFRSKLKNRPSSEGSINK, 2.92.
Regarding LWVQVDIFRSKLKNRPSSEGSINK, the protein stability index was 1.53.
Turning to LWVQRDIFRSKLKNRPSSEGSINK, the protein stability index came to 2.35.
Regarding LWVQYDIFRSKLKNRPSSEGSINK, the protein stability index was 1.39.
The result for LWVQHDIFRSKLKNRPSSEGSINK reads 2.52; that for LWVQEDIFRSKLKNRPSSEGSINK, 3.34; that for LWVQFDIFRSKLKNRPSSEGSINK, 2.59.
The result for LWVQQDIFRSKLKNRPSSEGSINK reads 2.76; that for LWVQSDIFRSKLKNRPSSEGSINK, 2.52.
The figure for LWVQKDIFRSKLKNRPSSEGSINK is 2.3; for LWVQIDIFRSKLKNRPSSEGSINK it is 2.35; for LWVQPDIFRSKLKNRPSSEGSINK it is 2.69.
With LWVQADIFRSKLKNRPSSEGSINK, the protein stability index amounted to 2.06.
The result for LWVQDDIFRSKLKNRPSSEGSINK reads 3.21.
Consider LWVQTDIFRSKLKNRPSSEGSINK, for which the protein stability index amounted to 2.29.
The result for LWVQWDIFRSKLKNRPSSEGSINK reads 1.87; that for LWVQNDIFRSKLKNRPSSEGSINK, 2.63; that for LWVQMDIFRSKLKNRPSSEGSINK, 1.75.
As to LWVQCDIFRSKLKNRPSSEGSINK, the protein stability index was determined as 2.3.
The figure for LWVQGDIFRYKLKNRPSSEGSINK is 3.11.
For LWVQGDIFRNKLKNRPSSEGSINK, the protein stability index was determined as 2.48.
The result for LWVQGDIFRRKLKNRPSSEGSINK reads 3.23; that for LWVQGDIFRIKLKNRPSSEGSINK, 2.31; that for LWVQGDIFRGKLKNRPSSEGSINK, 3.17.
The figure for LWVQGDIFRHKLKNRPSSEGSINK is 2.48; for LWVQGDIFRWKLKNRPSSEGSINK it is 1.54; for LWVQGDIFRVKLKNRPSSEGSINK it is 2.92.
The figure for LWVQGDIFRPKLKNRPSSEGSINK is 2.27; for LWVQGDIFRAKLKNRPSSEGSINK it is 2.29.
As for LWVQGDIFRCKLKNRPSSEGSINK, the protein stability index was determined as 2.3.
The figure for LWVQGDIFRFKLKNRPSSEGSINK is 2.05; for LWVQGDIFRDKLKNRPSSEGSINK it is 3.07.
The figure for LWVQGDIFREKLKNRPSSEGSINK is 2.44; for LWVQGDIFRTKLKNRPSSEGSINK it is 2.45.
LWVQGDIFRKKLKNRPSSEGSINK: the protein stability index amounted to 2.35.
Take LWVQGDIFRLKLKNRPSSEGSINK: the protein stability index stood at 3.46.
The result for LWVQGDIFRMKLKNRPSSEGSINK reads 2.49; that for LWVQGDIFRQKLKNRPSSEGSINK, 3.37.
